# Biological target: His-tagged human CD47 (human, UniProt Q08722 19-139)
# Sequence (Q08722 19-139): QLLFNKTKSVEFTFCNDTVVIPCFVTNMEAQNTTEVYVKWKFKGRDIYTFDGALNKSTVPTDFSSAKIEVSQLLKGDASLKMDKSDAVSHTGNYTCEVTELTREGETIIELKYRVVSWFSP
binder,measurement,value
"pNOVI V2K K33 (antibody, V domains shown) VH: not shown VL: DIQMTQSPSSLSASVGDRVTITCRASQSISSYLNWYQQKPGKAPKLLIYAASSLQSGVPSRFSGSGSGTDFTLTISSLQPEDFATYYCQQFHKRSPQKFGQGTKVEIKR",Kd,56 nM
